Laboratory results: patent US20200317768A1 (published 2020)
Where a chain is given by its changes, count along the chain named.

T1: human FcγRIIaR extracellular domain, C-terminal His-tag (human, UniProt P12318 34-217)
T1 construct: also called human FcγRIIa (type R); FcgRIIaR
T1 chain: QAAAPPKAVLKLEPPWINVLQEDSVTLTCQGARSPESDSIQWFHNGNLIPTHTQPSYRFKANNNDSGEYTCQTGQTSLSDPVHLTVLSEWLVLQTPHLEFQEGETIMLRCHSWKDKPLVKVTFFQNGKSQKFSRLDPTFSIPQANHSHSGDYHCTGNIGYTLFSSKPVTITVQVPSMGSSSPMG

T2: cynomolgus monkey FcγRIIIaS extracellular domain, C-terminal His-tag (cynomolgus monkey, UniProt Q8SPW2 21-206 at identity 1.00))
T2 construct: also called cyno FcγRIIIaS; cynoFcγRIIIaS
T2 chain: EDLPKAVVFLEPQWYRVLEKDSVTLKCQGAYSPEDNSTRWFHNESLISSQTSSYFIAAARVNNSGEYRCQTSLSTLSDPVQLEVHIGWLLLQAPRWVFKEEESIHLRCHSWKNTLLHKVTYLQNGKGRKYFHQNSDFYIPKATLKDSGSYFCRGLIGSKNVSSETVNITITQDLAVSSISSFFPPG

T3: human FcγRIIaH extracellular domain, C-terminal His-tag (human, UniProt P12318 34-217)
T3 construct: also called human FcγRIIa (type H); FcgRIIaH
T3 sequence: T1 chain with R134H

T4: human FcγRIIb extracellular domain, C-terminal His-tag (human, UniProt P31994 43-217)
T4 construct: also called human FcgRIIb; FcgRIIb
T4 sequence: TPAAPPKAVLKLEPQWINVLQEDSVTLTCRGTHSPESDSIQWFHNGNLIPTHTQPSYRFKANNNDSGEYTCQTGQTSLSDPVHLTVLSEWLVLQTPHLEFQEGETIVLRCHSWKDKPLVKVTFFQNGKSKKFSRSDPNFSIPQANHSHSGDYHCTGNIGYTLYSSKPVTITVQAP

T5: cynomolgus monkey FcγRIIa3 extracellular domain, C-terminal His-tag (cynomolgus monkey)
T5 construct: also called cyno FcγRIIa3; cynoFcgRIIa3
T5 chain: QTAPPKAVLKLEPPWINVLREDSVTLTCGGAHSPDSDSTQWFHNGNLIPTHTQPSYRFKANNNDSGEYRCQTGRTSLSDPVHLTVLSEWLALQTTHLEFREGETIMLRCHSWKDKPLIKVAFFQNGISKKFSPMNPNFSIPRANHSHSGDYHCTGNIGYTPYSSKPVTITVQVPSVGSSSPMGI

T6: cynomolgus monkey FcγRIIa1 extracellular domain, C-terminal His-tag (cynomolgus monkey)
T6 construct: also called cyno FcγRIIa1; cynoFcgRIIa1
T6 chain: T5 chain with T95P, A121T, S128A, P133H, N135D

B1: M103205H795-MY141/M103202L889-SK1 (antibody, human IgG1, kappa)
heavy: QVTLKESGPVLVKPTETLTLTCTVSGIDLSHDDISWVRQAPGKGLEWVGIISYAGSTYYASWAKGRLTISKDTSKNQVVLTMTNMDPVDTATYYCARGVPAYSHGGDLWGQGTLVTVSSASTKGPSVFPLAPSSKSTSGGTAALGCLVKDYFPEPVTVSWNSGALTSGVHTFPAVLQSSGLYSLSSVVTVPSSSLGTQTYICNVNHKPSNTKVDKKVEPKSCDKTHTCPPCPAPELLNGPSVFLFPPKPKDTLMISRTPEVTCVVVDVAHEDPEVKFNWYVDGVEVHNAKTKPREEQYNSTYRVVSVLTVLHQDWLNGKEYKCKVSNKALPAPIEKTISKAKGQPREPQVYTLPPSREEMTKNQVSLTCLVKGFYPSDIAVEWESNGQPENNYKTTPMVLDSDGSFFLYSKLTVDKSRWQQGNVFSCSVMHEALHNHYTQKSLSLSP
light: DIVMTQSPATLSLSPGERATLSCTSSQSVYHANWLSWFQQKPGQPPKLLIYWASTLAYGVPSRFSGSGSGTDFTLTISSLQPEDAATYYCAGGYGGGRYAFGQGTKVEIKRTVAAPSVFIFPPSDEQLKSGTASVVCLLNNFYPREAKVQWKVDNALQSGNSQESVTEQDSKDSTYSLSSTLTLSKADYEKHKVYACEVTHQGLSSPVTKSFNRGEC
notes: Substitutions introduced into M103205H795-SG1; expressed with M103202L889-SK1 as light chain
B2: M103205H795-MY147/M103202L889-SK1 (antibody, human IgG1, kappa)
heavy: B1 heavy with L237W, A269S, H270E
light: B1 light
notes: as for B1
B3: M103205H795-MY197/M103202L889-SK1 (antibody, human IgG1, kappa)
heavy: B1 heavy with A269S, H270D, A332K
light: B1 light
notes: as for B1

Target: T1, human FcγRIIaR extracellular domain, …
Assay: SPR (Biacore); KD of SG1 / KD of variant;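 also: relative to parent M103205H795-SG1 carrying the SG1 human heavy chain constant region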
Procedure: (§1) The kinetic analysis of interactions between these antibodies and FcγR was carried out using BIACORE® T200 or BIACORE® 4000 (GE Healthcare). HBS-EP+ (GE Healthcare) was used as the running buffer, and the measurement temperature was set to 25° C. A chip produced by immobilizing Protein A. Protein A/G or mouse anti-human IgG kappa light chain (BD Biosciences) onto a Series S Sensor Chip CM4 or CM5 (GE Healthcare) by the amine-coupling method was used. […] After the measurement, the antibody captured on the chip was washed off by allowing reaction with 10 mM glycine-HCl, pH1.5 and 25 mM NaOH so that the chip was regenerated and used repeatedly. The sensorgrams obtained as measurement results were analyzed by the 1:1 Langmuir binding model using the BIACORE® Evaluation Software to calculate the binding rate constant ka (L/mol/s) and dissociation rate constant kd (l/s), and the dissociation constant KD (mol/L) was calculated from these values. […] Regarding such interactions, KD values were calculated using the following 1:1 binding model described in BIACORE® T100 Software Handbook BR1006-48 Edition AE.
(§2) The behavior of interacting molecules according to the 1:1 binding model on BIACORE® can be described by Equation 1: Req=C·R max/(KD+C)+RI, wherein, Req is a plot of steady-state binding levels to analyte concentration. C is concentration, RI is bulk refractive index contribution in the sample, and Rmax is analyte binding capacity of the surface. When this equation is rearranged, KD can be expressed as Equation 2: KD=C·Rmax/(Req−RI)−C. KD can be calculated by substituting the values of Rmax, RI, and C into Equation 1 or Equation 2. From the current measurement conditions, RI=0, C=2 μmol/L can be used.

| Binder | KD fold (SG1 = 1) [fold] |
| --- | --- |
| B1 | 0.7 |
| B2 | 1 |
| B3 | 1.5 |

Target: T2, cynomolgus monkey FcγRIIIaS …
Assay: SPR (Biacore); KD of SG1 / KD of variant;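 also: relative to parent M103205H795-SG1 carrying the SG1 human heavy chain constant region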
Procedure: as §1, §2

| Binder | KD fold (SG1 = 1) [fold] |
| --- | --- |
| B1 | 0.08 |
| B2 | 0.07 |
| B3 | 0.17 |

These binders were tested against T3, human FcγRIIaH extracellular domain, … (assay: SPR (Biacore); KD of SG1 / KD of variant;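 also: relative to parent M103205H795-SG1 carrying the SG1 human heavy chain constant region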).
Procedure: as §1, §2

| Binder | KD fold (SG1 = 1) [fold] |
| --- | --- |
| B1 | 0.8 |
| B2 | 0.6 |
| B3 | 1.9 |

What follows are binders tested against T4, human FcγRIIb extracellular domain, … (assay: SPR (Biacore); KD of SG1 / KD of variant;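 also: relative to parent M103205H795-SG1 carrying the SG1 human heavy chain constant region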).
Procedure: as §1, §2

| Binder | KD fold (SG1 = 1) [fold] |
| --- | --- |
| B1 | 4.2 |
| B2 | 5.5 |
| B3 | 11.8 |

Target: T5, cynomolgus monkey FcγRIIa3 …
Assay: SPR (Biacore); KD of SG1 / KD of variant
Procedure: as §1, §2

| Binder | KD fold (SG1 = 1) [fold] |
| --- | --- |
| B1 | 0.9 |
| B2 | 2.6 |
| B3 | 12.1 |

Target: T6, cynomolgus monkey FcγRIIa1 …
Assay: SPR (Biacore); KD of SG1 / KD of variant
Procedure: as §1, §2

| Binder | KD fold (SG1 = 1) [fold] |
| --- | --- |
| B1 | 1.5 |
| B2 | 1.5 |
| B3 | 5.5 |

These binders were tested against T7, human FcγRIIIaV extracellular domain, C-terminal His-tag (human, UniProt P08637 17-208) (assay: SPR (Biacore); KD of SG1 / KD of variant).
T7 construct: also called human FcgRIIIaV; FcgRIIIaV
Procedure: as §1, §2

T7 sequence (P08637 17-208 F176V): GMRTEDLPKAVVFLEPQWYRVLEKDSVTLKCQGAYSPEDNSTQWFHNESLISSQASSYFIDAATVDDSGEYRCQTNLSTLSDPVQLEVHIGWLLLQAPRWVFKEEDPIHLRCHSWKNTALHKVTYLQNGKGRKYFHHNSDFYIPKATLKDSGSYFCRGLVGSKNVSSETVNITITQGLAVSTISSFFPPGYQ

| Binder | KD fold (SG1 = 1) [fold] |
| --- | --- |
| B1 | 0.07 |
| B2 | 0.07 |
| B3 | 0.08 |

Target: T1, human FcγRIIaR extracellular domain, …
Assay: SPR (Biacore), antibody captured, FcgR analyte

| Binder | Kd [nM] |
| --- | --- |
| B1 | 1600 |
| B2 | 1100 |
| B3 | 710 |

Each binder was assayed against T3, human FcγRIIaH extracellular domain, … (assay: SPR (Biacore), antibody captured, FcgR analyte).

| Binder | Kd [nM] |
| --- | --- |
| B1 | 12000 |
| B2 | 1200 |
| B3 | 360 |
